Experimental data: paper PMC6502846

Experiments:
[1] = target: C5b-8 initiator complex, comprised of C5b6 in complex with C7 and C8 (human) (UniProt P01031); assay: rapid atomic force microscopy imaging; supported bilayers of E. coli lipid extract on mica; proteins injected one after the other in situ without wash steps, 80 nM C5b6, C7 and C8, 1.4 µM C9; 30 °C; 6.5 s per frame; 20 mM HEPES, 120 mM NaCl, pH 7.4; chamber passivated with BSA
[2] = target: C5b-8(C9)n (1 ≤ n < 18) (human) (UniProt P01031); assay: as above

Sequence of C9 (P02748 22-559): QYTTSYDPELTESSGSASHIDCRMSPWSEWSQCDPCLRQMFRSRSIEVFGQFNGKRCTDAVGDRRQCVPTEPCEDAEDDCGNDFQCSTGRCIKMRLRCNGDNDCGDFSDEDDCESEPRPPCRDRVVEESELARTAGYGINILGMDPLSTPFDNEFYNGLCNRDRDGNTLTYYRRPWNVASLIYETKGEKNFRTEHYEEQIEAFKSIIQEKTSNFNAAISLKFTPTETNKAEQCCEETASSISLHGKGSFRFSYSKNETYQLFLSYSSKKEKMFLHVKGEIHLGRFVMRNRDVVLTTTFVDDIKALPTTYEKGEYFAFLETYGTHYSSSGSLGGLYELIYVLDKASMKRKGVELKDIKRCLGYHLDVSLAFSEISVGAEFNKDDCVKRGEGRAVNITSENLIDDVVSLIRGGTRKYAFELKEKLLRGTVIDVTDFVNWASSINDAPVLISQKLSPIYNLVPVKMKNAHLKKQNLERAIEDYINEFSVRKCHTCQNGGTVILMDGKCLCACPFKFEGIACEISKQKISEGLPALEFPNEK

characteristic initiation time τ init [1]: 912 s
kon [1]: 780 M⁻¹ s⁻¹
kon [2]: 108000 M⁻¹ s⁻¹
τ olig, time to add 17 copies of C9 after the initiation event [2]: 112 s
τ+, average time per addition of each of the remaining 17 C9 subunits [2]: 6.6 s
Substance: C9 (from UniProt P02748 22-559) (natural protein)
